Test results from patent publication US20110003343, “CONJUGATES OF BIOMOLECULES TO NANOPARTICLES” (LIFE TECHNOLOGIES CORPORATION, published 2011).

Columns and labels:
[1] = biological target: Phi-29 (exo-) DNA polymerase exo- (substitutions not given) (Bacteriophage phi29) (UniProt P03680); settings: tpol, unit not shown; unit assumed
[2] = biological target: Phi-29 (exo-) T373Y exo- (substitutions not given), T373Y (Bacteriophage phi29) (UniProt P03680); settings: tpol, unit not shown; unit assumed
[3] = biological target: Phi-29 (exo-) T373R exo- (substitutions not given), T373R (Bacteriophage phi29) (UniProt P03680); settings: tpol, unit not shown; unit assumed
[4] = biological target: T1, Phi29 DNA polymerase (HRP-treated quantum dot conjugate) (Bacteriophage phi29, UniProt P03680 P03680:1-575); assay: FRET binding; 250 nM oligo; settings: tags: His tag, label: 3' Alexa Fluor 647, hairpin with 5' overhang
T1 chain: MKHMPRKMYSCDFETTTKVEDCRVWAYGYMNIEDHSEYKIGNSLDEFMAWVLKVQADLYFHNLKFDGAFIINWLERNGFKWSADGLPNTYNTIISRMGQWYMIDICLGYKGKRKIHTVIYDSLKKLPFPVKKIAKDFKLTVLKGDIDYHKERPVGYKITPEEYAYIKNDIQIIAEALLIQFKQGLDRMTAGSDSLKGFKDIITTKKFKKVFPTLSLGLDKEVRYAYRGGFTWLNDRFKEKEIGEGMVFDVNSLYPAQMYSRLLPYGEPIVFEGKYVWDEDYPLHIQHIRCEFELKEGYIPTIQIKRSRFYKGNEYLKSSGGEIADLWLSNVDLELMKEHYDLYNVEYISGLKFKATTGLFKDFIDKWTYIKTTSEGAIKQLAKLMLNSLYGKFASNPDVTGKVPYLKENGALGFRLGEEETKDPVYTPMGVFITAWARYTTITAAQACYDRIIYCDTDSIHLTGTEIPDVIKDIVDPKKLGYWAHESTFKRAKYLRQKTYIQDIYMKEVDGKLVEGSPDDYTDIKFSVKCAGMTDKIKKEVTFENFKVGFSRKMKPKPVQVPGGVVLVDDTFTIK
Procedure: and 40 nM of the nanoparticle-polymerase conjugates in 50 mM Tris, 50 mM NaCl and 10 mM MgCl₂. The reaction was excited at 450 nm and emission (e.g., FRET) was detected as a ratio of intensities at 605/670 (dot emission/ALEXA FLUOR 647 emission).

[5] = biological target: T2, His-tagged F-linker Phi29 DNA polymerase D169A (exo-) (Bacteriophage phi29, UniProt P03680 SEQ:27-596); assay: FRET binding; BSA-treated dots; dATP present; settings: tags: His tag and F-linker, linked to quantum dot; label: 3' Alexa Fluor 647; hairpin with 5' overhang
T2 chain: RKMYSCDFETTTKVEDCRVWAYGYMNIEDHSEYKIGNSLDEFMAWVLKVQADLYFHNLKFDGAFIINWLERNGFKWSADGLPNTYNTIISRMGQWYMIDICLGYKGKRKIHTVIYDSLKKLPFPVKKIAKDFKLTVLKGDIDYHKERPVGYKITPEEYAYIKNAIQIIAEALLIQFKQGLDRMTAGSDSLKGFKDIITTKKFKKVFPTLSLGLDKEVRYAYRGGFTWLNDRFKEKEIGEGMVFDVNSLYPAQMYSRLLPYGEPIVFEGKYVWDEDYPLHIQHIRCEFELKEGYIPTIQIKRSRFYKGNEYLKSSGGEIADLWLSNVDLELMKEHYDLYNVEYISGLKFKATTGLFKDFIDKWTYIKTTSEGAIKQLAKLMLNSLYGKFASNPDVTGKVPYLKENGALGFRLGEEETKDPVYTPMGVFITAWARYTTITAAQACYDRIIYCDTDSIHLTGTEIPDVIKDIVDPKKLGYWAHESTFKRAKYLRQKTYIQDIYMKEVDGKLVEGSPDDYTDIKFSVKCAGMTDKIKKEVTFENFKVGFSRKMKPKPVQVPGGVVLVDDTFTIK
Source text: The binding reactions contained: 1× extension buffer, A1 nanoparticles-phi29 conjugates (or phi29 non-conjugated), oligonucleotide 229, and dATP. The binding reactions were serially diluted. […] The ratio of 605 nm/670 nm signals is depicted in FIG. 15C.

[6] = biological target: T2, His-tagged F-linker Phi29 DNA …; assay: FRET binding; Mg/Mn buffer; untreated, GST- or UDG/UGI-treated dots; settings: tags: His tag and F-linker, linked to quantum dot; label: 3' Alexa Fluor 647; hairpin with 5' overhang
[7] = biological target: T3, HP1 Phi29 DNA polymerase D12A/D66A (Bacteriophage phi29, UniProt P03680 SEQ:26-600); assay: FRET binding; 50 mM Tris pH 7.5, 50 mM NaCl, 10 mM MgCl2, 0.5 mM MnCl2; oligo 199 or 192 used; settings: tags: N-terminal His tag, linked to quantum dot; label: 3' Alexa Fluor 647; hairpin with 5' overhang
T3 chain: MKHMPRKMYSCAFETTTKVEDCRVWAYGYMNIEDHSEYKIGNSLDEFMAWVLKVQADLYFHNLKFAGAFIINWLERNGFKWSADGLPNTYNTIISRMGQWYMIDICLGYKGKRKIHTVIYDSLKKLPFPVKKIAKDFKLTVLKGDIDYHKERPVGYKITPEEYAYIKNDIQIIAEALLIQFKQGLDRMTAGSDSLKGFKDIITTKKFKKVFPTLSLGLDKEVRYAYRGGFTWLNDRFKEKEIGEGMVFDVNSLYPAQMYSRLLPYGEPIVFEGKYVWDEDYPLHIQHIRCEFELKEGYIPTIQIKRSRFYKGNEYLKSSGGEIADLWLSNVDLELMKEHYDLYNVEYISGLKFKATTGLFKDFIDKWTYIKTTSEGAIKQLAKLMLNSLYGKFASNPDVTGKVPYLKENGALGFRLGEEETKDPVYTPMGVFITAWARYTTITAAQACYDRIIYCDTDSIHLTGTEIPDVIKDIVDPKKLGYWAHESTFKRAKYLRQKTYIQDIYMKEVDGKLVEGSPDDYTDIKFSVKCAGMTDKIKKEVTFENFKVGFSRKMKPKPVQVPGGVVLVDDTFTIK

[8] = biological target: T4, PKA-tagged Phi29 DNA polymerase (Bacteriophage phi29, UniProt P03680 SEQ:30-599); assay: FRET binding; settings: label: 3' Alexa Fluor 647-dC; hairpin with 5' overhang
T4 chain: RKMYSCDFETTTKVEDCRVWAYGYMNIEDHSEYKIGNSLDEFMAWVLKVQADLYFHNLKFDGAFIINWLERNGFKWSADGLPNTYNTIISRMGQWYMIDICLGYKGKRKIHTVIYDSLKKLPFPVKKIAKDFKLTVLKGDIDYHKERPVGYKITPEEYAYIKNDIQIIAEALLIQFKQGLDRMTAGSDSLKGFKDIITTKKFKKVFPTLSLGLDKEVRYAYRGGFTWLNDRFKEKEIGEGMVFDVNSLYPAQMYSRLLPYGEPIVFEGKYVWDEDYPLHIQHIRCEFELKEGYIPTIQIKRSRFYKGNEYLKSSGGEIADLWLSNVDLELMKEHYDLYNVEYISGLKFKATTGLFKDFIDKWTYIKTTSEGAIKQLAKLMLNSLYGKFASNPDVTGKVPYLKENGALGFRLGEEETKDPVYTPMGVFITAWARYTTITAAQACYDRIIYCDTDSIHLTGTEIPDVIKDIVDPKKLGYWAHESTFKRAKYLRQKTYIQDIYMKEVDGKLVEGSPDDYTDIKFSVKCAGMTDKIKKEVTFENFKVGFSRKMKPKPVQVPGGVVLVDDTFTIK
Procedure: 50 μl of the primer/template was transferred from each well of row two into 50 μl of the sample in each well of row one.
The microtiter plate was placed on the plate reader which was set to measure fluorescence at 605 nm and 670 nm with excitation at 450 nm. The results are depicted in FIG. 11. […] The ratio of 605 nm/670 nm signals is depicted in FIG. 11C.

## CGTTAACCGCCCGCTCCTTTGCAAC / GTTGCAAAGGAGCGGGCG [stopped-flow template/primer]
[1]
  activity: 11 ms
[2]
  activity: 14 ms
[3]
  activity: 15 ms

## TTATCTTTGTGGGTGACAGGTTTTTCCTGTCACC (structured_DNA) [AF647 hairpin (Example 15)]
[4]
  binding result: binds

## TTTTTGCGGGTGACAGGTTTTTCCTGTCACCC (structured_DNA) [oligo 229]
[5]
  binding result: binds

## TTATCTTTGTGGGTGACAGGTTTTTCCTGTCACCC (structured_DNA) [oligo 199]
[6]
  binding result: binds
[7]
  binding result: binds

## TTATCTTTGTGGGTGACAGGTTTTTCCTGTCACCC (structured_DNA) [JX338]
[8]
  binding result: binds
